Assay results: US20140087995A1 (published 2014)
Numbered stars: 1 amine (or outer) side, 2 acyl side, 3 side chain; on linkers, the order of the positions; unused ones are H or OH. Bridge positions count the residues as written; N and C are the ends. Side chains are listed from the residue outwards. Ends that are not written are not given here. * marks the point of attachment. C20 diacid = O=C(O)CCCCCCCCCCCCCCCCCCC(=O)*; γGlu = O=C(O)[C@H](CCC(=O)[*:2])N[*:1]; AEEA = NCCOCCOCC(=O)O

T1: human amylin receptor (amylin 3(a) receptor: human calcitonin receptor with RAMP-3) (human, UniProt P30988 25-474; O60896 24-148)
T1 sequence (looked up) 1: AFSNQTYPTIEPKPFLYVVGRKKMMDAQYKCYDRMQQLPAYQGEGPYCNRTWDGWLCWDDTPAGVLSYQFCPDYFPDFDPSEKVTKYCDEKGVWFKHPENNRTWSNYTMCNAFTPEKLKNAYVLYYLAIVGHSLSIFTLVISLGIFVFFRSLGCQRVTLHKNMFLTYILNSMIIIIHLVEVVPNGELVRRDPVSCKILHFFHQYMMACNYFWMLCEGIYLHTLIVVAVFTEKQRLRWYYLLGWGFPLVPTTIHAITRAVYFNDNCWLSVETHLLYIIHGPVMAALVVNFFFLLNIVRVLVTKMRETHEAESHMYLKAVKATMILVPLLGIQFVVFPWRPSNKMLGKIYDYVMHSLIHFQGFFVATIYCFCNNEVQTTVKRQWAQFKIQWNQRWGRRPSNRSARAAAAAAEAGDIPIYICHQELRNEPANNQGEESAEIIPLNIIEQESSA
T1 sequence (looked up) 2: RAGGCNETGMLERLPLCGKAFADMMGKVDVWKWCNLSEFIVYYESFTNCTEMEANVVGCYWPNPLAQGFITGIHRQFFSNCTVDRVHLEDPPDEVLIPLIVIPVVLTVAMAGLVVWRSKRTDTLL

T2: human calcitonin receptor (human, UniProt P30988 25-474)
T2 sequence (looked up): T1 sequence (looked up) 1

B1: N^ε1-[2-[2-[2-[[(4S)-4-carboxy-4-(19-carboxynonadecanoylamino)butanoyl]amino]ethoxy]ethoxy]acetyl]-[Arg17,Pro21,Pro27,Glu35]-h-amylin (peptide)
peptide: K([AEEA-γGlu-C20 diacid])CNTATCATQRLANFLRHSSPNFGAIPSSTNVGSETY-NH2
modifications: disulfide 2-7; N-terminus assumed
SMILES: CC[C@H](C)[C@H](NC(=O)[C@H](C)NC(=O)CNC(=O)[C@H](Cc1ccccc1)NC(=O)[C@H](CC(N)=O)NC(=O)[C@@H]1CCCN1C(=O)[C@H](CO)NC(=O)[C@H](CO)NC(=O)[C@H](Cc1c[nH]cn1)NC(=O)[C@H](CCCNC(=N)N)NC(=O)[C@H](CC(C)C)NC(=O)[C@H](Cc1ccccc1)NC(=O)[C@H](CC(N)=O)NC(=O)[C@H](C)NC(=O)[C@H](CC(C)C)NC(=O)[C@H](CCCNC(=N)N)NC(=O)[C@H](CCC(N)=O)NC(=O)[C@@H](NC(=O)[C@H](C)NC(=O)[C@@H]1CSSC[C@H](NC(=O)[C@@H](N)CCCCNC(=O)COCCOCCNC(=O)CC[C@H](NC(=O)CCCCCCCCCCCCCCCCCCC(=O)O)C(=O)O)C(=O)N[C@@H](CC(N)=O)C(=O)N[C@@H]([C@@H](C)O)C(=O)N[C@@H](C)C(=O)N[C@@H]([C@@H](C)O)C(=O)N1)[C@@H](C)O)C(=O)N1CCC[C@H]1C(=O)N[C@@H](CO)C(=O)N[C@@H](CO)C(=O)N[C@H](C(=O)N[C@@H](CC(N)=O)C(=O)N[C@H](C(=O)NCC(=O)N[C@@H](CO)C(=O)N[C@@H](CCC(=O)O)C(=O)N[C@H](C(=O)N[C@@H](Cc1ccc(O)cc1)C(N)=O)[C@@H](C)O)C(C)C)[C@@H](C)O
notes: also called compound 26
B2: N^ε1-[(4S)-4-carboxy-4-(19-carboxynonadecanoylamino)butanoyl]-[Arg17,Pro21,Pro27,Lys35]-h-amylin (peptide)
peptide: K([γGlu-C20 diacid])CNTATCATQRLANFLRHSSPNFGAIPSSTNVGSKTY-NH2
modifications: disulfide 2-7; N-terminus assumed
SMILES: CC[C@H](C)[C@H](NC(=O)[C@H](C)NC(=O)CNC(=O)[C@H](Cc1ccccc1)NC(=O)[C@H](CC(N)=O)NC(=O)[C@@H]1CCCN1C(=O)[C@H](CO)NC(=O)[C@H](CO)NC(=O)[C@H](Cc1c[nH]cn1)NC(=O)[C@H](CCCNC(=N)N)NC(=O)[C@H](CC(C)C)NC(=O)[C@H](Cc1ccccc1)NC(=O)[C@H](CC(N)=O)NC(=O)[C@H](C)NC(=O)[C@H](CC(C)C)NC(=O)[C@H](CCCNC(=N)N)NC(=O)[C@H](CCC(N)=O)NC(=O)[C@@H](NC(=O)[C@H](C)NC(=O)[C@@H]1CSSC[C@H](NC(=O)[C@@H](N)CCCCNC(=O)CC[C@H](NC(=O)CCCCCCCCCCCCCCCCCCC(=O)O)C(=O)O)C(=O)N[C@@H](CC(N)=O)C(=O)N[C@@H]([C@@H](C)O)C(=O)N[C@@H](C)C(=O)N[C@@H]([C@@H](C)O)C(=O)N1)[C@@H](C)O)C(=O)N1CCC[C@H]1C(=O)N[C@@H](CO)C(=O)N[C@@H](CO)C(=O)N[C@H](C(=O)N[C@@H](CC(N)=O)C(=O)N[C@H](C(=O)NCC(=O)N[C@@H](CO)C(=O)N[C@@H](CCCCN)C(=O)N[C@H](C(=O)N[C@@H](Cc1ccc(O)cc1)C(N)=O)[C@@H](C)O)C(C)C)[C@@H](C)O
notes: also called compound 35
B3: N^ε1-[(4S)-4-carboxy-4-[[(4S)-4-carboxy-4-(19-carboxynonadecanoylamino)butanoyl]amino]butanoyl]-[Glu14,Arg17,Pro21,Pro27,Pro37]-h-amylin (peptide)
peptide: K([γGlu-γGlu-C20 diacid])CNTATCATQRLAEFLRHSSPNFGAIPSSTNVGSNTP-NH2
modifications: disulfide 2-7; N-terminus assumed
SMILES: CC[C@H](C)[C@H](NC(=O)[C@H](C)NC(=O)CNC(=O)[C@H](Cc1ccccc1)NC(=O)[C@H](CC(N)=O)NC(=O)[C@@H]1CCCN1C(=O)[C@H](CO)NC(=O)[C@H](CO)NC(=O)[C@H](Cc1c[nH]cn1)NC(=O)[C@H](CCCNC(=N)N)NC(=O)[C@H](CC(C)C)NC(=O)[C@H](Cc1ccccc1)NC(=O)[C@H](CCC(=O)O)NC(=O)[C@H](C)NC(=O)[C@H](CC(C)C)NC(=O)[C@H](CCCNC(=N)N)NC(=O)[C@H](CCC(N)=O)NC(=O)[C@@H](NC(=O)[C@H](C)NC(=O)[C@@H]1CSSC[C@H](NC(=O)[C@@H](N)CCCCNC(=O)CC[C@H](NC(=O)CC[C@H](NC(=O)CCCCCCCCCCCCCCCCCCC(=O)O)C(=O)O)C(=O)O)C(=O)N[C@@H](CC(N)=O)C(=O)N[C@@H]([C@@H](C)O)C(=O)N[C@@H](C)C(=O)N[C@@H]([C@@H](C)O)C(=O)N1)[C@@H](C)O)C(=O)N1CCC[C@H]1C(=O)N[C@@H](CO)C(=O)N[C@@H](CO)C(=O)N[C@H](C(=O)N[C@@H](CC(N)=O)C(=O)N[C@H](C(=O)NCC(=O)N[C@@H](CO)C(=O)N[C@@H](CC(N)=O)C(=O)N[C@H](C(=O)N1CCC[C@H]1C(N)=O)[C@@H](C)O)C(C)C)[C@@H](C)O
notes: also called compound 13
B4: N^ε1-[(4S)--4-carboxy-4-(19-carboxynonadecanoylamino)butanoyl]-[Glu14,Arg17,Pro21,Pro27,Pro37]-h-amylin (peptide)
peptide: K([γGlu-C20 diacid])CNTATCATQRLAEFLRHSSPNFGAIPSSTNVGSNTP-NH2
modifications: disulfide 2-7; N-terminus assumed
SMILES: CC[C@H](C)[C@H](NC(=O)[C@H](C)NC(=O)CNC(=O)[C@H](Cc1ccccc1)NC(=O)[C@H](CC(N)=O)NC(=O)[C@@H]1CCCN1C(=O)[C@H](CO)NC(=O)[C@H](CO)NC(=O)[C@H](Cc1c[nH]cn1)NC(=O)[C@H](CCCNC(=N)N)NC(=O)[C@H](CC(C)C)NC(=O)[C@H](Cc1ccccc1)NC(=O)[C@H](CCC(=O)O)NC(=O)[C@H](C)NC(=O)[C@H](CC(C)C)NC(=O)[C@H](CCCNC(=N)N)NC(=O)[C@H](CCC(N)=O)NC(=O)[C@@H](NC(=O)[C@H](C)NC(=O)[C@@H]1CSSC[C@H](NC(=O)[C@@H](N)CCCCNC(=O)CC[C@H](NC(=O)CCCCCCCCCCCCCCCCCCC(=O)O)C(=O)O)C(=O)N[C@@H](CC(N)=O)C(=O)N[C@@H]([C@@H](C)O)C(=O)N[C@@H](C)C(=O)N[C@@H]([C@@H](C)O)C(=O)N1)[C@@H](C)O)C(=O)N1CCC[C@H]1C(=O)N[C@@H](CO)C(=O)N[C@@H](CO)C(=O)N[C@H](C(=O)N[C@@H](CC(N)=O)C(=O)N[C@H](C(=O)NCC(=O)N[C@@H](CO)C(=O)N[C@@H](CC(N)=O)C(=O)N[C@H](C(=O)N1CCC[C@H]1C(N)=O)[C@@H](C)O)C(C)C)[C@@H](C)O
notes: also called compound 12
B5: N^ε1-[(4S)-4-carboxy-4-(19-carboxynonadecanoylamino)butanoyl]-[Arg17,Pro21,Pro27,Glu35]-h-amylin (peptide)
peptide: K([γGlu-C20 diacid])CNTATCATQRLANFLRHSSPNFGAIPSSTNVGSETY-NH2
modifications: disulfide 2-7; N-terminus assumed
SMILES: CC[C@H](C)[C@H](NC(=O)[C@H](C)NC(=O)CNC(=O)[C@H](Cc1ccccc1)NC(=O)[C@H](CC(N)=O)NC(=O)[C@@H]1CCCN1C(=O)[C@H](CO)NC(=O)[C@H](CO)NC(=O)[C@H](Cc1c[nH]cn1)NC(=O)[C@H](CCCNC(=N)N)NC(=O)[C@H](CC(C)C)NC(=O)[C@H](Cc1ccccc1)NC(=O)[C@H](CC(N)=O)NC(=O)[C@H](C)NC(=O)[C@H](CC(C)C)NC(=O)[C@H](CCCNC(=N)N)NC(=O)[C@H](CCC(N)=O)NC(=O)[C@@H](NC(=O)[C@H](C)NC(=O)[C@@H]1CSSC[C@H](NC(=O)[C@@H](N)CCCCNC(=O)CC[C@H](NC(=O)CCCCCCCCCCCCCCCCCCC(=O)O)C(=O)O)C(=O)N[C@@H](CC(N)=O)C(=O)N[C@@H]([C@@H](C)O)C(=O)N[C@@H](C)C(=O)N[C@@H]([C@@H](C)O)C(=O)N1)[C@@H](C)O)C(=O)N1CCC[C@H]1C(=O)N[C@@H](CO)C(=O)N[C@@H](CO)C(=O)N[C@H](C(=O)N[C@@H](CC(N)=O)C(=O)N[C@H](C(=O)NCC(=O)N[C@@H](CO)C(=O)N[C@@H](CCC(=O)O)C(=O)N[C@H](C(=O)N[C@@H](Cc1ccc(O)cc1)C(N)=O)[C@@H](C)O)C(C)C)[C@@H](C)O
notes: also called compound 27
B6: N^ε1-[(4S)-4-carboxy-4-[[(4S)-4-carboxy-4-(19-carboxynonadecanoylamino)butanoyl]amino]butanoyl]-[Asp14,Arg17,Pro21,Pro27,Asp35]-h-amylin (peptide)
peptide: K([γGlu-γGlu-C20 diacid])CNTATCATQRLADFLRHSSPNFGAIPSSTNVGSDTY-NH2
modifications: disulfide 2-7; N-terminus assumed
SMILES: CC[C@H](C)[C@H](NC(=O)[C@H](C)NC(=O)CNC(=O)[C@H](Cc1ccccc1)NC(=O)[C@H](CC(N)=O)NC(=O)[C@@H]1CCCN1C(=O)[C@H](CO)NC(=O)[C@H](CO)NC(=O)[C@H](Cc1c[nH]cn1)NC(=O)[C@H](CCCNC(=N)N)NC(=O)[C@H](CC(C)C)NC(=O)[C@H](Cc1ccccc1)NC(=O)[C@H](CC(=O)O)NC(=O)[C@H](C)NC(=O)[C@H](CC(C)C)NC(=O)[C@H](CCCNC(=N)N)NC(=O)[C@H](CCC(N)=O)NC(=O)[C@@H](NC(=O)[C@H](C)NC(=O)[C@@H]1CSSC[C@H](NC(=O)[C@@H](N)CCCCNC(=O)CC[C@H](NC(=O)CC[C@H](NC(=O)CCCCCCCCCCCCCCCCCCC(=O)O)C(=O)O)C(=O)O)C(=O)N[C@@H](CC(N)=O)C(=O)N[C@@H]([C@@H](C)O)C(=O)N[C@@H](C)C(=O)N[C@@H]([C@@H](C)O)C(=O)N1)[C@@H](C)O)C(=O)N1CCC[C@H]1C(=O)N[C@@H](CO)C(=O)N[C@@H](CO)C(=O)N[C@H](C(=O)N[C@@H](CC(N)=O)C(=O)N[C@H](C(=O)NCC(=O)N[C@@H](CO)C(=O)N[C@@H](CC(=O)O)C(=O)N[C@H](C(=O)N[C@@H](Cc1ccc(O)cc1)C(N)=O)[C@@H](C)O)C(C)C)[C@@H](C)O
notes: also called compound 2

biological target: T1, human amylin receptor (amylin 3(a) …); assay: cell-based or functional assay

| Binder | hAmylin-R funct. EC50 [nM] |
| --- | --- |
| B1 | 0.212 |
| B2 | 0.364 |
| B3 | 0.213 |
| B4 | 0.101 |
| B5 | 0.133 |
| B6 | 0.182 |

biological target: T2, human calcitonin receptor; assay: cell-based or functional assay

| Binder | Ratio hCT/hAmylin funct. | hCTR funct. EC50 [nM] |
| --- | --- | --- |
| B1 | 29.9 | 6.34 |
| B2 | 15 | 5.46 |
| B3 | 2.2 | 0.47 |
| B4 | 1.8 | 0.185 |
| B5 | 22.6 | 3 |
| B6 | 16.4 | 3 |
